According to paper PMC6089081 (Redox Biology, 2018):

Molecular target: the molecule itself
Test: native gel or EMSA

B1: GRPEL2 (natural protein)
chain: STATQRTAGEDCRSEDPPDELGPPLAERALRVKAVKLEKEVQDLTVRYQRAIADCENIRRRTQRCVEDAKIFGIQSFCKDLVEVADILEKTTECISEESEPEDQKLTLEKVFRGLLLLEAKLKSVFAKHGLEKLTPIGDKYDPHEHELICHVPAGVGVQPGTVALVRQDGYKLHGRTIRLARVEVAVESQRRL
For B1, the “stoichiometry N” value was 2.
